Among the data in patent publication US20110245153A1 are Kd values, retold here.

pKd: −log10 of the molar value.

For experiment [1], the target named is staphylococcal enterotoxin B (SEB), Staphylococcus aureus superantigen peptide. In words: fusion: Aga2 (yeast display).
In experiment [2] the target is toxic shock syndrome toxin-1 (TSST-1), Staphylococcus aureus superantigen peptide. In words: soluble, other.

What is called pKd is the Kd on a negative log10 scale, so that one unit is a factor of ten. Turning to EGIGYITK, in experiment [1], the pKd is 8.30.
Take wild type hVβ2.1: in experiment [2], the pKd is 5.64.
